{
  "source": "patent US20230303666A1",
  "about": "(published 2023)",
  "target": "recombinant RBD (ThermoFisher, RP-87678) (SARS-CoV-2, UniProt P0DTC2 319-541)",
  "data": [
    {"binder": "SR6v15 with GST tag (VHH, not shown: a dimerising Fc or GST) VHH: EVQLVESGGGLVQAGDSLRLSCAASGDSYILWRMGWFRQAPGKEREFVAAISLDGQFTNYADSVRGRFSISADSAKYTVYLQMNSLKPEDTAVYYCAALPFLDYWGQGTQVTVSS", "values": [
      {"measurement": "Kd", "value": 2.18, "unit": "nM"}
    ]}
  ]
}
